In PMC11237401:

Tests used:
MurG = MurG (UniProt Q2FYL5); test: BACTH (bacterial adenylate cyclase-based two-hybrid); conditions: T18 fusion: Gp11 or mutant; T25 fusion: MurG; parent: est. 5300; read off a plot
DivIC = test: as above; conditions: T18 fusion: Gp11 or mutant; T25 fusion: DivIC; parent: est. 5500; read off a plot

UniProt Q2FYL5, sequence (Q2FYL5 whole entry, the tested form may be a part): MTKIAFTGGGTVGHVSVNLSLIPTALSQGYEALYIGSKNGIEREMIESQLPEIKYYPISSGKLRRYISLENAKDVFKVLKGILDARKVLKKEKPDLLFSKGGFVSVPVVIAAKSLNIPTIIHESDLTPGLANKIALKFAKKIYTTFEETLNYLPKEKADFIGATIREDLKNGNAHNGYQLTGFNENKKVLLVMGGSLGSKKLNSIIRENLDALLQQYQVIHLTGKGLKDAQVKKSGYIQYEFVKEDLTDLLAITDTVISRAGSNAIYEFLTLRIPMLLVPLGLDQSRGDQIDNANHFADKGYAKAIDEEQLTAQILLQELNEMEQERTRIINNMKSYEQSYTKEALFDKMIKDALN

Substance	response (MurG)	response (DivIC)
Gp11 A38E	150 Miller Units	1900 Miller Units
Gp11 G36R	100 Miller Units	100 Miller Units
Gp11 S33L	1600 Miller Units	3200 Miller Units
